# Where two headings read alike, the source gives them in different places.
# T1: Ac-DEVD-Afc
# T1 sequence: DEVD
# T2: Ac-LEHD-Afc
# T2 sequence: LEHD
# T3: Ac-VEID-Afc
# T3 sequence: VEID
# T4: Ac-WEHD-Afc
# T4 sequence: WEHD
# T5: Ac-IETD-Afc
# T5 sequence: IETD
# T6: Ac-LEHD-Afc
# T6 chain: LEHD
# What was measured:
# Ac-DEVD-Afc = test system: T1, Ac-DEVD-Afc
# Ac-LEHD-Afc [1] = test system: T2, Ac-LEHD-Afc
# Ac-VEID-Afc = test system: T3, Ac-VEID-Afc
# Ac-WEHD-Afc = test system: T4, Ac-WEHD-Afc
# Ac-IETD-Afc = test system: T5, Ac-IETD-Afc
# Ac-LEHD-Afc [2] = target: T6, Ac-LEHD-Afc
molecule,measurement,setting,value
Caspase 7,"Optimum substrate at pH 7.2 (rate of AFC release, fluorogenic cleavage assay)",Ac-DEVD-Afc,Ac-DEVD-Afc (SEQ ID NO:1)
Caspase 2,"Optimum substrate at pH 7.2 (rate of AFC release, fluorogenic cleavage assay)",Ac-LEHD-Afc [1],Ac-LEHD-Afc (SEQ ID NO:5)
Caspase 1,"Optimum substrate at pH 7.2 (rate of AFC release, fluorogenic cleavage assay)",Ac-LEHD-Afc [1],"Ac-LEHD-Afc (SEQ ID NO:5),"
same,"Optimum substrate at pH 7.2 (rate of AFC release, fluorogenic cleavage assay)",Ac-VEID-Afc,Ac-VEID-Afc (SEQ ID NO:6)
same,"Optimum substrate at pH 7.2 (rate of AFC release, fluorogenic cleavage assay)",Ac-WEHD-Afc,"Ac-WEHD-Afc (SEQ ID NO:4),"
Caspase 10,"Optimum substrate at pH 7.2 (rate of AFC release, fluorogenic cleavage assay)",Ac-IETD-Afc,"Ac-IETD-Afc (SEQ ID NO:2),"
same,"Optimum substrate at pH 7.2 (rate of AFC release, fluorogenic cleavage assay)",Ac-LEHD-Afc [1],Ac-LEHD-Afc (SEQ ID NO:5)
Caspase 8,"Optimum substrate at pH 7.2 (rate of AFC release, fluorogenic cleavage assay)",Ac-LEHD-Afc [1],Ac-LEHD-Afc (SEQ ID NO:5
Caspase 6,"Optimum substrate at pH 7.2 (rate of AFC release, fluorogenic cleavage assay)",Ac-IETD-Afc,Ac-IETD-Afc (SEQ ID NO:2)
Caspase 3,"Optimum substrate at pH 7.2 (rate of AFC release, fluorogenic cleavage assay)",Ac-DEVD-Afc,Ac-DEVD-Afc (SEQ ID NO:1)
Caspase 9 (protein) MDEADRRLLRRCRLRLVEELQVDQLWDALLSRELFRPHMIEDIQRAGSGSRRDQARQLIIDLETRGSQALPLFISCLEDTGQDMLASFLRTNRQAAKLSKPTLENLTPVVLRPEIRKPEVLRPETPRPVDIGSGGFGDVGALESLRGNADLAYILSMEPCGHCLIINNVNFCRESGLRTRTGSNIDCEKLRRRFSSLHFMVEVKGDLTAKKMVLALLELAQQDHGALDCCVVVILSHGCQASHLQFPGAVYGTDGCPVSVEKIVNIFNGTSCPSLGGKPKLFFIQACGGEQKDHGFEVASTSPEDESPGSNPEPDATPFQEGLRTFDQLDAISSLPTPSDIFVSYSTFPGFVSWRDPKSGSWYVETLDDIFEQWAHSEDLQSLLLRVANAVSVKGIYKQMPGCFNFLRKKLFFKTS,"Optimum substrate at pH 7.2 (rate of AFC release, fluorogenic cleavage assay)",Ac-LEHD-Afc [2],Ac-LEHD-Afc (SEQ ID NO:5

# Reference: patent US7118877
